Test results: patent US20250073277A1, “METHODS FOR OBTAINING CARDIOMYOGENIC PRECURSOR CELLS” (University of Miami, published 2025)

Target: T1, human growth hormone-releasing hormone receptor (GHRHR) (human)
T1 chain: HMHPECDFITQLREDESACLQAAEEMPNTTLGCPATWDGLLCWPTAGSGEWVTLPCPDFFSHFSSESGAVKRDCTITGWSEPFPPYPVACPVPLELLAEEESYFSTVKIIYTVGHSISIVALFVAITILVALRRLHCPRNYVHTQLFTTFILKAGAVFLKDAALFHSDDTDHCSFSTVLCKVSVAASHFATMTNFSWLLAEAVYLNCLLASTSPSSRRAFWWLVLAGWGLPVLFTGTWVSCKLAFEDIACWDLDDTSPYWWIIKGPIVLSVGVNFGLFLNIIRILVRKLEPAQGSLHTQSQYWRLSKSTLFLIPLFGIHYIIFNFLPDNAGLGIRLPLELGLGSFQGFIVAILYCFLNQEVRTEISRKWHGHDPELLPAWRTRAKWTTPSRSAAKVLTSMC
Experiment: cell-based or functional assay

NKX2.5 expression in differentiating hiPSCs: 2.5 fold
B1: recombinant growth hormone-releasing hormone (GHRH) (ligand)
chain: YADAIFTNSYRKVLGQLSARKLLQDIMSRQQGESNQERGARARL
